Reference: the DeepSol protein solubility set

Assay: soluble on expression in E. coli; label from the status in PepcDB or PDB records

Row | Sequence | soluble on expression in E. coli
1 | MNEQIRTILAEDGTKTSKIRKLLLLGLTHREIADLVTRGNRGFVWNVYKRMRDEGLIVSAGTPTATTTPELDYSFRRKFGVEIEAYNCTCQRLVRELTEAGIEVASERYNHDLRPHWKLVTDSSLNGNDTFELVSPILEGEDGLEKLERVCWVLDSCNVKINGSCGLHVHMNAEDFNITTWRNLLLSYKHAEAEIDKFMPASRRGGSNTYCGSLIQFPDERIRSARNIRELQGLFPSRYMKVNLQAYSRHRTVEFRQHSGTISFTKIENWVCFLDRMITFASVGSLPAGIRLEDFPFLGEKQKLYYKLRTKKLAV | not soluble
2 | MTNEADKFVVDVIYALPTQQKVISVSVLPGTSAIDIVRQSNMVSFFPEIELETVKLGVFSNVVKHDQVILPGQRVEIYRPLIADPKDVRRRRADKAKDEGRANKVTGGRVS | soluble
3 | MSLFQMSYYYSGLGWDFIQHVDQTNGVLNVVSPDFFYIRKDGSLLLRSANPDVIKALHRRKLKVVPFLSNHWDQDLGRFALMNRVLLAKQISHAIEELDLDGVNIDIENLTEKDRNLFTDFIRLVRKSIPRHKEVSVAVAANPFGWTKGWHGSYDYEYLAKYADYLMVMAYDESRLAGPTASVGWVEKSIQYVLTQKISPQKLVLGLPFYGRCWMEGQSASQAIPLYLVVSKKAEGHHHHHH | not soluble
4 | MSLQIMLCAISNIASGNCSEDCKYCTQSAHVKTDIQKYRRKELSQIVLEAKMAKKNEALGFCLVTAGLGLDDEKLEYVCEAAKAVQKEVPNLLLIACNGMASVEQLKELKKAGIFSYNHNLESSKEFFPQICTTHTWESRFQTNLNAKEAGLMLCCGGIYGMGESEEDRLSFRKSLQELQPFSTPINFFIANENLKLQVPRLSADEALKIVRDTKEALPQSVVMVAGGREVVLRERQYEIFQAGAGAIVIGDYLTTKGEEPSQDIIKLKEMGFTFASECHEGHHHHHH | not soluble
5 | MKEETFYLVREDVLPDAMRKTLEVKKLLDRKKADSVADAVQKVDLSRSAFYKYRDAVFPFYTMVKEQIITLFFHLEDRSGALSQLLQAVADSGSNVLSIHQTIPLQGRANVTLSISTSAMEEDIHTLMNKLRKFDFVEKVEILGSGA | not soluble
6 | MAHHHHHHMVGAMHDIQVGFLDRCSVFQFTLTCTVLDFQKVAEPQPKSPGSLPSSTRTAPNPNGEEVEKHINKEQYTVRCLGSEAYTEALKNYLDDGCIVRVIGRLKTTEVVDAGKKQPFPCIIVEQGRWSTVSLVHSLRKQRRDWQLQNILTSVATLE | not soluble
7 | MGSDKIHHHHHHMKADFDVLIIGAGLSGIGMACHLAEACPDKRVGILERRSAIGGTWDLFRYPGIRSDSDMFSFGYKFRPWHELKVLADGPAIRRYIADTAREYGVDKSIRFGLKVLRASWSSEDRSWTVTVQQEDSHETHSLTCKFLISCTGYYNYDHGYRPDFTGLERFQGICVHPQHWPQDLDYHGKRVIVIGSGATAVTLVPSMAGKASHVTMLQRSPSYVFSVPAYDKISAVLQKMLPASWVFGLARWRNIRLQRFIYRAARRWPQRVRAWLLSHVEQQLGHGADLRHFSPEYNPWDQRLCAVPDGDLFKAIREGKASVVTDQIDTFTETGVRLKSGRRLDADIIVTATGLQLQSLGGMEVQVDGQPRHASSLMTYKSVLMQDVPNMAHLFGYTNAPWTLKVDLAASYICRLLDHMDRHEYEVVTPGAPAGEMLDETVMDSLQSGYVQRGRNVLPRQGRKLPWRVVHNFEADRDMLTRHPVSDPALAFVRAATTARTGKASELVATRMDGTAV | not soluble
8 | MELEAGTVVEGRVVRVVSFGAFVELAGGEQGLVHISQIAHEYVTNVRDYLNEGDIVQVLIKGRDAKGRLDLSIKDLTPAPEGGAPPPRPRRLPKQSPEFENKLKSFLRGTGGFGGKGKKGGRKKR | soluble
9 | KKPIPTLFLHGFGGSANSEKFMVKQAEKRGVTKDIITAYVSKDGAVTFKGKLRKDAVNPIVKIELENNRQGYLDKNAAWFKNVLTKLQSEYNFDKFNFVGHSMGNLTFAQYMMTYGNDKSLPQLNKQVNIAGTFNGVLNMNEDVNEITVDKDGKPSRMNQPYQQLRVLKDIYKGKGIEVLNIYGDLKDGTHSDGRVSNSSSKSLKYLLGNSPKSYRESKYEGEPAQHSQLHENENVANELIDFLWKK | not soluble
10 | AHQTKVDTLIVTNSKAWKPFSYVSQDGEPKGILIDFWREYAERNHVRVEFLLLDWEESLRAVKEGRADVHAGLIYSEARDKYLDFGAVIMPIQTKLYVNKDMLAVDIKGVLTGEVELPIGLVKGSYEAEFVRANYPRASLVEYLNNDAMIRAAVEKNILYFVADLQVAN | not soluble
11 | MSNHQKRLSVPNSWPVERKTATFTVKAGAGPHGESGVPLLIVLRDVLGYADNRKEARYALNEDNVLINGKAISDEERPVGMFDILAFTEREEYYRVFPGEGGRLALTAIDPDAAQSKLGKIVTKTHVSGGDVQLGLHDGETLIVEDDQTYDAGDSIVVGNEDGEVVAHFEYEEGALVTAVDGAHAGEVGEVEEIQVTPGSAQNNVIVSQDEGEGFETVEEYVVVIDENFTGDDELEHHHHHH | soluble
12 | MKYFFETRLGETRYRLADGSLLCKDVPIGRTGKQLYGADDLPKLKPDKFVEIVVTRSPEQVFHPATLASFEGMSITILHPEDENGNVRLVNPENWKVLAVGHLQNVRRGTGEQSDLMLADLIVKDESAIQLIEDGLREVSCGYDAEYEQTEPGKAEQVDITGNHVALVPKGRAGNRCAIGDRDTMANQKKNWWNRMRAAIKTGDADTMNELVESAPASVTGDEGDLPQGVNLNINLSPQQPLPDKAPEMGGDPTGDSDDDLKTLLKALLAKLERNATGDNDNKPDDNPTGDGEDDEEETTITGDSAWRAEVIVPGIDLSRKMKPTAFKREVLASADKTLVRQIVGDADIRKLPKQSVDMAFNAVSEVAKGRNTRATTGDAQRLNMGMTSIASLNKQNAEFWANRKG | not soluble
13 | MSLKNNSEVFNVLHFSDIHIQLRYNVGAEANCTNLPCGAPDSYNKQLLPSSYNFSSYYQHFSPNVAKMEFSFYPDAHYDENSQYIKGDYYDFPLYRGWNFKNAPATSFGGYLTDSPAVLMNSSLISMAKMHKEKNFEFAIFTGDVVDHLLLSCTPEYTKEEEVKSFKAMKFFFNNLTVLPALGNHETGEYGQLSPIAYDFNGSYSWNQDEMVDLWINNEWFPAKDRYDLKSHYAGFSYVTNRGLKVIGLNSNAYYQKNLWSYIDLSTNPDLFGQWEFLVNELIESEEKGQRVWIMAHIPTTDYDTLPLQSRIFGKIVERFSPYTIANIFFAHTHMDQTHILYSTNSSKEAEDIINMSWVMQSVTPLANYNPSWRYYEVENESFNIINSFNYMTKLNDTFVNGGEEPVWEFEYSARELYDPKKTWPERAPLNATFWHKYVFERLRNESDIEFNQQYSNIRYREGHHHHHH | not soluble
14 | MPGYAQYRSFSEDLSMNMEEIVALSVKHNVSDLHLCSAWPARWRIRGRMEAAPFDAPDVEELLREWLDDDQRAILLENGQLDFAVSLAENQRLRGSAFAQRQGISLALRLLPSHCPQLEQLGAPPVLPELLKSENGLILVTGATGSGKSTTLAAMVGYLNQHADAHILTLEDPVEYLYASQRCLIQQREIGLHCMTFASGLRAALREDPDVILLGELRDSETIRLALTAAETGHLVLATLHTRGAAQAVERLVDSFPAQEKDPVRNQLAGSLRAVLSQKLEVDKQEGRVALFELLINTPAVGNLIREGKTHQLPHVIQTGQKVGMLTFQQSYQQRVGEGRL | not soluble
15 | MKLSPATKSFIGKTVDISTFAIQWGFVPFVVYLGFKKGAEPMPNGQILPLSAMSLLWG | not soluble
16 | SNAESAAPQVHLSILATTDIHANMMDYDYYSDKETADFGLARTAQLIQKHREQNPNTLLVDNGDLIQGNPLGEYAVKYQKDDIISGTKTHPIISVMNALKYDAGTLGNHEFNYGLDFLDGTIKGADFPIVNANVKTTSGENRYTPYVINEKTLIDENGNEQKVKVGYIGFVPPQIMTWDKKNLEGQVQVQDIVESANETIPKMKAEGADVIIALAHTGIEKQAQSSGAENAVFDLATKTKGIDAIISGHQHGLFPSAEYAGVAQFNVEKGTINGIPVVMPSSWGKYLGVIDLKLEKADGSWKVADSKGSIESIAGNVTSRNETVTNTIQQTHQNTLEYVRK | soluble
17 | MGSDKIHHHHHHMELNHLVTGKIALNQYVHRLEQKDVSFYVHYWGAMTNHYNTLLHKHSFYEICYVVRGEGYYLEGDRTYPLREQTIFLSKPEHLHQIKSETGLFLFYVAFELSEDQSSAEWIKVMEEVKQSPFITMQLKDGEPPGLLWKTLMLQAAQPVNAFDKEILSHLSHALILSLIQTFLPYAQRPKQKQPIHTSSALLTEVKLHIKDNLSQPLKLTDVASHFHISGRHLSRLFAAELGVSYSEFVQNEKINKAAELLKSTNLSIKEIAEEIGFSVHYFTRVFSAKIGSSPGLFRSLYKDSKMTAFQINKPFQKIEQAKPHE | not soluble
18 | MRKLLVSLVLLIFSENVTANRVEQVHLSLSGKMDEMVVTWLTQGPLPNVTPYVMYGLSKDALRWTAKATTTSWKDQGSHGYVRYTHRATMTKMVPGDTYYYKVGSSQDMSDVYHFHQPDPTQPLRAAIFGDLSVYKGAPSIKQLTDATHDNHFDVIIHIGDIAYDLHDDEGNRGDDYMNAVQPFAAYVPYMVFAGNHESDSHFNQIINRFTMPKNGVYDNNLFWSFDYGLTHFIGLNSEYYAEIHTKEAQAQYKWLQADLAKNKAQWTIVMFHRPWYCSTKDKGGCNDYLDMLSRKGNSELPGLEKLLFDHKVDMVLYGHKHTYERMWPIYDGTGYKSSDSGHIRNAKAPVYILTGSAGCHTHEGPSDAPQSFSATRLGQYGYTRLKVYNTTHLSTYFVDTSDKVGNFMDKFYLEKD | soluble
19 | SLDSNESKLKQKSPAEFFAENKNIAGFDNPGKSLYTTVRELVENALDSAESIEG | soluble
20 | STSSDPQSHNVFVYGSILEPAVAAVILDRTADTVPAVLHGYHRYKLKGLPYPCIVSSDSGKVNGKVITGVSDAELNNFDVIEGNDYERVTVEVVRMDNSEKVKVETYVWVNKDDPRMYGEWDFEEWRVVHAEKFVETFRKMLEWNKNPNGKSMEEAVGSLLSSGD | soluble
21 | MPRSSLRLLAKPLLESRRGFCTSSDKIVASVLFERLRVVIPKPDPAVYAFQEFKFNWQQQFRRRYPDEFLDIAKNRAKGEYQMDYVPAPRITEADKNNDRKSLYRALDKKLYLLIFGKPFGATSDKPVWHFPEKVYDSEPTLRKCAESALKSVVGDLTHTYFVGNAPMAHMAIQPTEEMPDLPSYKRFFFKCSVVAASKYDISNCEDFVWVTKDELLEFFPEQAEFFNKMIIS | soluble
22 | MEKFNNIAQLKDSGLKVTGPRLKILDLFETHAEEHLSAEDVYRILLEEGVEIGVATIYRVLTQFEQAGILQRHHFETGKAVYELDKGDHHDHIVCVKCGEVTEFHNPEIEALQDKIAEENGYRIVDHALYMYGVCSDCQAKGKR | not soluble
